This is an account of results in US20230084102A1 (HUMABS BIOMED, published 2023).

The target of assay [1] is T1, biotinylated NANP-peptide (Plasmodium falciparum).
T1 construct: also called NANP-repeat region of CSP
T1 peptide: Biotin-NANPNANPNANPNANPNA
Kind of assay: ELISA, biotinylated peptide on avidin-coated plates, titrated IgG. (In general: An ELISA detects its analyte on a solid surface through an enzyme-linked reagent.)
Procedure: (§1) To test specific antibody binding to (i) the NANP-repeat region of CSP and (ii) the N-terminal region of CSP covering the junction between the N-terminal domain and the NANP-repeats, ELISA plates were coated with 10 μg/ml of avidin (Sigma). […] The plates were washed and incubated with titrated monoclonal antibodies, followed by 1/500 AP-conjugated goat anti-human IgG (Southern Biotech) and pNPP substrate. EC50 (ng/ml) values were calculated for every sample tested by nonlinear regression analysis using the Graph Pad Prism 7 software.

In assay [2] the target is T2, biotinylated NPDP-peptide (Plasmodium falciparum, also: biotinylated).
T2 peptide: KQPADGNPDPNANPN
Described as above.
Procedure: as §1

For assay [3], the target named is T3, biotinylated NPDP19-peptide (Plasmodium falciparum).
T3 peptide: Biotin-KQPADGNPDPNANPNVDPN
Briefly: ELISA, biotinylated peptide on streptavidin-coated plates.

Assay [4] addresses T1, biotinylated NANP-peptide. The assay is described as above.
Assay [5] deals with T1, biotinylated NANP-peptide. Briefly: ELISA, biotinylated peptide on avidin-coated plates, titrated IgG.
Procedure: as §1
The target in assay [6] is T2, biotinylated NPDP-peptide. The description is as above.
Procedure: as §1

Read-outs that look alike come from different tables or passages of the source. Where no end group is shown, it is not given here. The star is where a group is joined. Biotin = O=C1N[C@H]2[C@H](CS[C@H]2CCCCC(=O)*)N1

B1: MGU10 (antibody, V domains shown)
VH: QVQLVESGGGVVQPGRSLRLSCAASGFAFSNYGMNWVRQAPGKGLEWVAVIWHDGSLKYYTQSVKGRFTISRDNAKNTLFLQMDSLSADDTAMYYCTVWYLETPDDGFDIWGRGTMVTVSS
VL: QLVLTQPPSASASLGVSVTLTCTLSHGHTSKAIAWHQQQPGKGPRYLMKVNSDGSHTKGAAVPDRFSGSTSGAERHFTISNLQSDDEADYYCQAWDSGIWVFGGGTKLTVL
notes: also called parental antibody MGU10
One may read the EC50 as the midpoint of the concentration-response curve. With B1, the 50% effective concentration (EC50) in assay [1] came out at 0.0343 mg/L; in assay [2] it was 0.0261 mg/L.

B2: MGU10variant2 (antibody, V domains shown)
VH: QVQLVESGGGVVQPGRSLRLSCAASGFAFSNYGMNWVRQAPGKGLEWVAVIWHDGSLKYYTQSVKGRFTISRDNAKNTLFLQMDSLSADDTAMYYCTVWYLETPDEGFDIWGRGTMVTVSS
VL: QLVLTQPPSASASLGVSVTLTCTLSHGHTSKAIAWHQQQPGKGPRYLMKVNSDGSHTKGAAVPDRFSGSTSGAERHFTISNLQSDDEADYYCQAWDSGIWVFGGGTKLTVL
notes: Expressed as IgG1; also called MGU10v2
B2: the binding result in assay [3] is listed as “binds”. Besides, the EC50 in assay [1] came out at 0.0268 mg/L; in assay [2], 0.0204 mg/L.

B3: MGU10variant3 (antibody, V domains shown)
VH: QVQLVESGGGVVQPGRSLRLSCAASGFAFSNYGMNWVRQAPGKGLEWVAVIWHDGSLKYYTQSVKGRFTISRDNAKNTLFLQMDSLSADDTAMYYCTVWYLETPDDGFDIWGRGTMVTVSS
VL: QLVLTQPPSASASLGVSVTLTCTLSHGHTSKAIAWHQQQPGKGPRYLMKVNSDGSHTKGAAVPDRFSGSTSGAERHFTISNLQSDDEADYYCQAWESGIWVFGGGTKLTVL
notes: Expressed as IgG1; also called MGU10v3
For the molecule B3, the concentration giving a half-maximal response (EC50) was 0.0263 mg/L in assay [1] and 0.0251 mg/L in assay [2].

B4: MGU10variant1 (antibody, V domains shown)
VH: QVQLVESGGGVVQPGRSLRLSCAASGFAFSNYGMHWVRQAPGKGLEWVAVIWHDGSLKYYTQSVKGRFTISRDNAKNTLFLQMDSLSADDTAMYYCTVWYLETPDDGFDIWGQGTMVTVSS
VL: QLVLTQPPSASASLGVSVTLTCTLSHGHTSKAIAWHQQQPGKGPRYLMKVNSDGSHTKGAAVPDRFSGSTSGAERHFTISNLQSDDEADYYCQAWDSGIWVFGGGTKLTVL
notes: Expressed as IgG1 in Expi293F cells and tested as quantified culture supernatant; also called MGU10v1
In the case of B4, the EC50 in assay [1] was found to be 0.0285 mg/L; in assay [2] it was 0.0225 mg/L.

B5: MGU10variant8 (antibody, V domains shown)
VH: QVQLVESGGGVVQPGRSLRLSCAASGFAFSNYGMNWVRQAPGKGLEWVAVIWHDGSLKYYTQSVKGRFTISRDNAKNTLFLQMDSLSAEDTAMYYCTVWYLETPDEGFDIWGRGTMVTVSS
VL: QLVLTQPPSASASLGVSVTLTCTLSHGHTSKAIAWHQQQPGKGPRYLMKVNSDGSHTKGAAVPDRFSGSTSGAERHFTISNLQSDDEADYYCQAWDSGIWVFGGGTKLTVL
notes: also called MGU10v8
For the molecule B5, the binding result in assay [3] and in assay [4] was “binds” throughout.

B6: MGH2 (antibody, V domains shown)
VH: QVQLVESGGGVVQPGGSLRLSCTASGFSFSSYAMHWVRQAPGKGLEWVAYTRYDGSNKFYLDSVQGRFTISRDNSKNTLYLEMDSLRLEDTAVYFCAKVGDGTVAGTIDYWGQGTLVTVSS
VL: YIVMTQSPLSLPVTLGQPASISCRSSQSLVYSDGNTYLNWYQQRPGQSPRRLIYKVSNRDSGVPDRFSGSGSGTDFTLKISRVEAEDVGVYYCMQGTHWWTFGQGTKVEIK
notes: also called parental antibody MGH2
Regarding B6, the EC50 was 0.0279 mg/L in assay [5] and 0.0488 mg/L in assay [6].

B7: MGH2variant1 (antibody, V domains shown)
VH: QVQLVESGGGVVQPGGSLRLSCTASGFSFSSYAMHWVRQAPGKGLEWVAYTRYDGSNKFYLDSVQGRFTISRDNSKNTLYLEMDSLRLEDTAVYFCAKVGDGTVAGTIDYWGQGTLVTVSS
VL: YIVMTQSPLSLPVTLGQPASISCRSSQSLVYSDGNTYLNWYQQRPGQSPRRLIYKVSNRDSGVPDRFSGSGSGTDFTLKISRVEAEDVGVYYCMQGTHFWTFGQGTKVEIK
notes: Expressed as IgG1; also called MGH2v1
As to B7, the values for the EC50 in assay [5] and in assay [6] were 0.0223 mg/L and 0.0658 mg/L, respectively.
